How the values were obtained:
[1] = biological target: MCL-1 (Homo sapiens), Q07820; test: fluorescence anisotropy competition; settings: modification not given
[2] = biological target: MCL-1 (Homo sapiens), Q07820; test: ITC; settings: modification not given

Chain of MCL-1 (Homo sapiens), Q07820 (Q07820 whole entry): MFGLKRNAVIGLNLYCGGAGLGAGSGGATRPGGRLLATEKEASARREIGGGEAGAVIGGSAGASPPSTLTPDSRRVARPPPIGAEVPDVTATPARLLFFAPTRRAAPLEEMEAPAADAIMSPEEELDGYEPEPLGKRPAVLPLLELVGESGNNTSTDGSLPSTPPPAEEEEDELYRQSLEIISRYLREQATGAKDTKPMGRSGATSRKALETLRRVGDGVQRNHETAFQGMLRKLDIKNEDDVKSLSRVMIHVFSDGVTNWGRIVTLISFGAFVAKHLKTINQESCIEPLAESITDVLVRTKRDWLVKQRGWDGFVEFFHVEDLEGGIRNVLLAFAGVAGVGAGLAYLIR

Binder	IC50 [1]	Kd [2]
CAQWRRIGDKVNLRQKLLN [NOXA75–93 L78W 75-93, Q9JM54]	2200 nM	2400 nM
CAQFRRIGDKVNLRQKLLN [NOXA75–93 L78F 75-93, Q9JM54]	2700 nM	1700 nM
CAQLRRIGDKFNLRQKLLN [NOXA75–93 V85F 75-93, Q9JM54]	> 20000 nM	800 nM
CAQYRRIGDKVNLRQKLLN [NOXA75–93 L78Y 75-93, Q9JM54]	> 100000 nM	–
